# In article PMC9482650, “Quantitative fragmentomics allow affinity mapping of interactomes” (Nature Communications, 2022):
# T1: DVL1, O14640
# T1 sequence (O14640 246-333, limits assumed, looked up): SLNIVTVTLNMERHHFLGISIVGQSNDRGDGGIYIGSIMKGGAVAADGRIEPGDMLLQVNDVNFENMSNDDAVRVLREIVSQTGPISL
# T2: APBA3_2, O96018
# T2 sequence (O96018 480-570, limits assumed, looked up): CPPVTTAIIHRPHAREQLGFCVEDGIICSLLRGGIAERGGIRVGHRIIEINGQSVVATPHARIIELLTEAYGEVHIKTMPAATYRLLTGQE
# T3: NHERF3_2, Q5T2W1
# T3 sequence (Q5T2W1 129-225, limits assumed, looked up): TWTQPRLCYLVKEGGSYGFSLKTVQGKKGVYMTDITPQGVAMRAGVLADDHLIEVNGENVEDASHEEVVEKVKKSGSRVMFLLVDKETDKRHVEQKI
# T4: PARD6B, Q9BYG5
# T4 sequence (Q9BYG5 152-260, limits assumed, looked up): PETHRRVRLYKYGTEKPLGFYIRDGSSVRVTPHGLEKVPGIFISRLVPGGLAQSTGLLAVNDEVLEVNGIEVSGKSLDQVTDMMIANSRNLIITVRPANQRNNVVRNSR
# T5: MPDZ_13, O75970
# T5 sequence (O75970 1982-2070, limits assumed, looked up): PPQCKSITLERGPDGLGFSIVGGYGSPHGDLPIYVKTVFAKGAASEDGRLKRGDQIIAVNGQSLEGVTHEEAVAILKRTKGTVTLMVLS
# T6: PTPN13_4, Q12923
# T6 sequence (Q12923 1783-1878, limits assumed, looked up): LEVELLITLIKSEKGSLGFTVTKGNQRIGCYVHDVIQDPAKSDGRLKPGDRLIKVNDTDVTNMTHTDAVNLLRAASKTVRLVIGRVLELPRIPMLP
# T7: MPDZ_3, O75970
# T7 sequence (O75970 372-473, limits assumed, looked up): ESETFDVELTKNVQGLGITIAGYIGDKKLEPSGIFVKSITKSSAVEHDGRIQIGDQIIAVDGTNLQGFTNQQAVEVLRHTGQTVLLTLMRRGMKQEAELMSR
# T8: SHANK2, Q9UPX8
# T8 sequence (Q9UPX8 621-730, limits assumed, looked up): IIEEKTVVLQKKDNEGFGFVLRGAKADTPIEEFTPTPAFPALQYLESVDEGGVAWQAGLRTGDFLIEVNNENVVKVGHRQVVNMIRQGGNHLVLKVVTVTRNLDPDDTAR
# T9: MLLT4, P55196
# T9 sequence (P55196 1002-1103, limits assumed, looked up): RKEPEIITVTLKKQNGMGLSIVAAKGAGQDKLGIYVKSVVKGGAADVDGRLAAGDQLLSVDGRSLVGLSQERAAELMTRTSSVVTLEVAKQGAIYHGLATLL
# T10: PDZD11, Q5EBL8
# T10 sequence (Q5EBL8 42-139, limits assumed, looked up): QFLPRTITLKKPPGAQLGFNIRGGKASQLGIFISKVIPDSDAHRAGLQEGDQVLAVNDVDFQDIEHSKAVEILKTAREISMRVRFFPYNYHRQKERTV
# T11: GRIP1_1, Q9Y3R0
# T11 sequence (Q9Y3R0 48-146, limits assumed, looked up): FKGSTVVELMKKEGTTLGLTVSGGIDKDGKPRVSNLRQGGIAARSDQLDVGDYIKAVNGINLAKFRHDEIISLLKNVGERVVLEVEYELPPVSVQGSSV
# T12: NHERF1_1, O14745
# T12 sequence (O14745 9-104, limits assumed, looked up): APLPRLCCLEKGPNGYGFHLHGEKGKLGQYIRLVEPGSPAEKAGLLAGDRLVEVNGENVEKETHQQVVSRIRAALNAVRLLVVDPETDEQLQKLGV
# T13: MPDZ_6, O75970
# T13 sequence (O75970 1003-1099, limits assumed, looked up): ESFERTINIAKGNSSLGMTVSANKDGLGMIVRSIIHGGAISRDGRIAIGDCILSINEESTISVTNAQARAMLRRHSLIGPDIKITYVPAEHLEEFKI
# T14: SHANK3, Q9BYB0
# T14 sequence (Q9BYB0 641-750, limits assumed, looked up): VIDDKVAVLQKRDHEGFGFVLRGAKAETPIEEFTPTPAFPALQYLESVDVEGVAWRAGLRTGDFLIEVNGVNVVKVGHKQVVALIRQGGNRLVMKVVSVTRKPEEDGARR
# What was measured:
# Assay in all cases: holdup assay
# Set-up in all cases: key: below the threshold = too weak to quantify, mostly under pKd 3.1 to 4
# Settings in all cases: plain residues with an end cap or a label only (N-terminal biotin on a linker: ttds)
# [1] = biological target: T1, DVL1, O14640
# [2] = biological target: MAGI1_3, Q96QZ7
# [3] = biological target: T2, APBA3_2, O96018
# [4] = biological target: RIMS2, Q9UQ26
# [5] = biological target: GIPC3, Q8TF64
# [6] = biological target: PARD3_1, Q8TEW0
# [7] = biological target: T3, NHERF3_2, Q5T2W1
# [8] = biological target: Inadl_7, Q8NI35
# [9] = biological target: TJP1_1, Q07157
# [10] = biological target: LMO7, Q8WWI1
# [11] = biological target: T4, PARD6B, Q9BYG5
# [12] = biological target: T5, MPDZ_13, O75970
# [13] = biological target: MAGI3_5, Q5TCQ9
# [14] = biological target: T6, PTPN13_4, Q12923
# [15] = biological target: T7, MPDZ_3, O75970
# [16] = biological target: T8, SHANK2, Q9UPX8
# [17] = biological target: T9, MLLT4, P55196
# [18] = biological target: T10, PDZD11, Q5EBL8
# [19] = biological target: T11, GRIP1_1, Q9Y3R0
# [20] = biological target: T12, NHERF1_1, O14745
# [21] = biological target: T13, MPDZ_6, O75970
# [22] = biological target: T14, SHANK3, Q9BYB0
# [23] = biological target: PREX1_1, Q8TCU6
# PREX1_1, Q8TCU6, sequence (Q8TCU6 608-718): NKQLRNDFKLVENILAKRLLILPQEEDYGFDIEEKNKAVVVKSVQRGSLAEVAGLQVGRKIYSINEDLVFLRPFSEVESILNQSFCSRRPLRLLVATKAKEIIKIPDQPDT
# PARD3_1, Q8TEW0, sequence (Q8TEW0 264-372): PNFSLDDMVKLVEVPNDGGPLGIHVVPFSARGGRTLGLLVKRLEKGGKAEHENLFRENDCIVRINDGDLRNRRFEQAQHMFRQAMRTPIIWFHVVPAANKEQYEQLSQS
# GIPC3, Q8TF64, sequence (Q8TF64 107-202): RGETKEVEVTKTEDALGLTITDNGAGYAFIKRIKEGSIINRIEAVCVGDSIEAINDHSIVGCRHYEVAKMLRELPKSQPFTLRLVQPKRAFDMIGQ
# Inadl_7, Q8NI35, sequence (Q8NI35 1219-1332): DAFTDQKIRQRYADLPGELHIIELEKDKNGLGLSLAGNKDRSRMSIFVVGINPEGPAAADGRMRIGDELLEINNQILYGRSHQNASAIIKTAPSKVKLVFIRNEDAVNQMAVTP
# TJP1_1, Q07157, sequence (Q07157 18-120): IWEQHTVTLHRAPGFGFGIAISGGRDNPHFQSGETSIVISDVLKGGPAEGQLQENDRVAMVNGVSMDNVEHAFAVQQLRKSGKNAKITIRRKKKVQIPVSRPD
# MAGI1_3, Q96QZ7, sequence (Q96QZ7 638-725): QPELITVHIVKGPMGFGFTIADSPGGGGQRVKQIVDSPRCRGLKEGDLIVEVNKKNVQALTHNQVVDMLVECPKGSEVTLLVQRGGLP
# MAGI3_5, Q5TCQ9, sequence (Q5TCQ9 847-941): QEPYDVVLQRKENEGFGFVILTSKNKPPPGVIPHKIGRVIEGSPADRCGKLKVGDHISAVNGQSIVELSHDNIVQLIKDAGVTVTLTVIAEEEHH
# RIMS2, Q9UQ26, sequence (Q9UQ26 637-758): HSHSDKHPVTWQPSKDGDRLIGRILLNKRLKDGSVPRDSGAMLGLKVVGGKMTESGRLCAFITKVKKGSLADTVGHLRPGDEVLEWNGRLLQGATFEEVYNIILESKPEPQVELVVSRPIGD
# LMO7, Q8WWI1, sequence (Q8WWI1 1037-1138): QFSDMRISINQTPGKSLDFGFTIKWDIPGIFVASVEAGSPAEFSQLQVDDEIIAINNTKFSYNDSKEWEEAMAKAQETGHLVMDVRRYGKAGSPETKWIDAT
binder,measurement,setting,value
"PPRQRSETQV [HPV82-E6, Q9IR59]",pKd,[1],below the threshold
same,pKd,[2],4.28
same,pKd,[3],below the threshold
same,pKd,[4],below the threshold
same,pKd,[5],below the threshold
same,pKd,[6],below the threshold
same,pKd,[7],below the threshold
same,pKd,[8],below the threshold
same,pKd,[9],below the threshold
same,pKd,[10],below the threshold
same,pKd,[11],below the threshold
same,pKd,[12],below the threshold
same,pKd,[13],below the threshold
same,pKd,[14],below the threshold
same,pKd,[15],below the threshold
same,pKd,[16],below the threshold
same,pKd,[17],below the threshold
same,pKd,[18],below the threshold
same,pKd,[19],below the threshold
same,pKd,[20],below the threshold
same,pKd,[21],below the threshold
same,pKd,[22],below the threshold
same,pKd,[23],below the threshold
"SSIDLWETAL [SLC15A5, A6NIM6]",pKd,[1],below the threshold
same,pKd,[2],below the threshold
same,pKd,[3],below the threshold
same,pKd,[4],below the threshold
same,pKd,[5],below the threshold
same,pKd,[6],below the threshold
same,pKd,[7],below the threshold
same,pKd,[8],below the threshold
same,pKd,[9],below the threshold
same,pKd,[10],below the threshold
same,pKd,[11],below the threshold
same,pKd,[12],below the threshold
same,pKd,[13],5.57
same,pKd,[14],below the threshold
same,pKd,[15],4.85
same,pKd,[16],5.87
same,pKd,[17],below the threshold
same,pKd,[18],below the threshold
same,pKd,[19],below the threshold
same,pKd,[20],below the threshold
same,pKd,[21],below the threshold
same,pKd,[22],6.63
same,pKd,[23],below the threshold
"SGGKRKETLV [NET1, Q7Z628]",pKd,[1],below the threshold
same,pKd,[2],4.91
same,pKd,[3],below the threshold
same,pKd,[4],below the threshold
same,pKd,[6],below the threshold
same,pKd,[7],below the threshold
same,pKd,[8],below the threshold
same,pKd,[9],3.89
same,pKd,[11],below the threshold
same,pKd,[12],3.75
same,pKd,[13],3.72
same,pKd,[14],below the threshold
same,pKd,[15],below the threshold
same,pKd,[17],4.02
same,pKd,[18],below the threshold
same,pKd,[19],below the threshold
same,pKd,[20],below the threshold
same,pKd,[21],below the threshold
same,pKd,[22],below the threshold
same,pKd,[23],below the threshold
"SRSRRRETAL [HPV33-E6, P06427]",pKd,[1],4.23
same,pKd,[2],below the threshold
same,pKd,[3],4.28
same,pKd,[4],below the threshold
same,pKd,[5],below the threshold
same,pKd,[6],below the threshold
same,pKd,[7],below the threshold
same,pKd,[8],below the threshold
same,pKd,[9],below the threshold
same,pKd,[10],below the threshold
same,pKd,[11],below the threshold
same,pKd,[12],below the threshold
same,pKd,[13],below the threshold
same,pKd,[14],below the threshold
same,pKd,[15],below the threshold
same,pKd,[16],below the threshold
same,pKd,[17],below the threshold
same,pKd,[18],below the threshold
same,pKd,[19],below the threshold
same,pKd,[20],below the threshold
same,pKd,[21],below the threshold
same,pKd,[22],below the threshold
same,pKd,[23],below the threshold
"SHSSKGETAV [FZD7, O75084]",pKd,[1],below the threshold
same,pKd,[2],below the threshold
same,pKd,[3],below the threshold
same,pKd,[4],below the threshold
same,pKd,[5],below the threshold
same,pKd,[6],below the threshold
same,pKd,[7],below the threshold
same,pKd,[8],4.99
same,pKd,[9],below the threshold
same,pKd,[10],below the threshold
same,pKd,[11],below the threshold
same,pKd,[12],below the threshold
same,pKd,[13],below the threshold
same,pKd,[14],below the threshold
same,pKd,[15],below the threshold
same,pKd,[16],below the threshold
same,pKd,[17],below the threshold
same,pKd,[18],below the threshold
same,pKd,[19],below the threshold
same,pKd,[20],below the threshold
same,pKd,[21],below the threshold
same,pKd,[22],below the threshold
same,pKd,[23],below the threshold
"KLVIKTETTV [RASSF6, Q6ZTQ3]",pKd,[1],below the threshold
same,pKd,[2],4.32
same,pKd,[4],below the threshold
same,pKd,[5],below the threshold
same,pKd,[6],below the threshold
same,pKd,[7],below the threshold
same,pKd,[8],4.51
same,pKd,[9],below the threshold
same,pKd,[10],below the threshold
same,pKd,[11],below the threshold
same,pKd,[12],below the threshold
same,pKd,[13],below the threshold
same,pKd,[14],below the threshold
same,pKd,[15],below the threshold
same,pKd,[16],below the threshold
same,pKd,[17],below the threshold
same,pKd,[18],below the threshold
same,pKd,[19],below the threshold
same,pKd,[20],below the threshold
same,pKd,[21],below the threshold
same,pKd,[22],below the threshold
same,pKd,[23],4.1
